Assay results: IntAct's records for PubMed 21703453

B1: Tip elongation aberrant protein Tea4 (Schizosaccharomyces pombe (strain ATCC 38366 / 972)), O60132 (parent)
chain: MLHMNSASSADSMEIMESHFDPTQQNDSTIIESRYSPEEYLEQSFEIQRIISGENSEPQTVASQEISDSQEEDTTLTSSQFEDCGTEYNEVVEDDEFRSEDEDDFMDEEEEYALYEAELSSSPSIHEEVIDCNFVHAIRGFEATVEGQVDATKGDMMILLDDSNSYWWLVKMCKNLAIGYLPAEYIETPSERLARLNKYKNSETSNSQQSVTLPPLDIVEKTLEAPSPNFRIKRVTFTCSSNSSDDEMDSENDYEAMVNRTVAENGLEIEFSDSSDSSLSAEYRSESEDHVTDSPAYVDLTELEGGFNQFNSTSFQSTSPLGLEIVETEINGSSTTADSKNSHSPYSKFSSAYPDAENSNISKINISIAGNKELYGNATQSDPSLYSTWIANKHKTASSATVDSPLRRSLSVDAMQSNASFSSYSSTSNTDKSLRPSSYSAVSESSNFTHDVSRDNKEISLNAPKSIIVSQSDSFDTSNVTQDAPNDVEKEPISGQMPNNLSVQSLKQLEVYPIRHSVSIEMPSEKLLSPRLYSSSTPSSPTKGFQKDDEEDSENRKQADKVELSPSSLLRQMSLPVDSSSQSDAQCTTSSVYITAERKAFSQSSIDLSTLSNHHVNNEINRRSFAGGFTSLADELSEMRELLHESPAPLECNEEMVIPTPELDASSAIPSSSISHDEDLLPRKNTEESTSSSSFSSLITSPASLQYDENPFKQSVVAELNNNSSSVPFVDSAHASDIHAYDNDHVSTKNKEFNRRLREFILDPDSLSGLYWSVKSAGVRASRRVSRNIEGESVSSDLDDIFANVLKGLSDEMASLLNTNR
partner: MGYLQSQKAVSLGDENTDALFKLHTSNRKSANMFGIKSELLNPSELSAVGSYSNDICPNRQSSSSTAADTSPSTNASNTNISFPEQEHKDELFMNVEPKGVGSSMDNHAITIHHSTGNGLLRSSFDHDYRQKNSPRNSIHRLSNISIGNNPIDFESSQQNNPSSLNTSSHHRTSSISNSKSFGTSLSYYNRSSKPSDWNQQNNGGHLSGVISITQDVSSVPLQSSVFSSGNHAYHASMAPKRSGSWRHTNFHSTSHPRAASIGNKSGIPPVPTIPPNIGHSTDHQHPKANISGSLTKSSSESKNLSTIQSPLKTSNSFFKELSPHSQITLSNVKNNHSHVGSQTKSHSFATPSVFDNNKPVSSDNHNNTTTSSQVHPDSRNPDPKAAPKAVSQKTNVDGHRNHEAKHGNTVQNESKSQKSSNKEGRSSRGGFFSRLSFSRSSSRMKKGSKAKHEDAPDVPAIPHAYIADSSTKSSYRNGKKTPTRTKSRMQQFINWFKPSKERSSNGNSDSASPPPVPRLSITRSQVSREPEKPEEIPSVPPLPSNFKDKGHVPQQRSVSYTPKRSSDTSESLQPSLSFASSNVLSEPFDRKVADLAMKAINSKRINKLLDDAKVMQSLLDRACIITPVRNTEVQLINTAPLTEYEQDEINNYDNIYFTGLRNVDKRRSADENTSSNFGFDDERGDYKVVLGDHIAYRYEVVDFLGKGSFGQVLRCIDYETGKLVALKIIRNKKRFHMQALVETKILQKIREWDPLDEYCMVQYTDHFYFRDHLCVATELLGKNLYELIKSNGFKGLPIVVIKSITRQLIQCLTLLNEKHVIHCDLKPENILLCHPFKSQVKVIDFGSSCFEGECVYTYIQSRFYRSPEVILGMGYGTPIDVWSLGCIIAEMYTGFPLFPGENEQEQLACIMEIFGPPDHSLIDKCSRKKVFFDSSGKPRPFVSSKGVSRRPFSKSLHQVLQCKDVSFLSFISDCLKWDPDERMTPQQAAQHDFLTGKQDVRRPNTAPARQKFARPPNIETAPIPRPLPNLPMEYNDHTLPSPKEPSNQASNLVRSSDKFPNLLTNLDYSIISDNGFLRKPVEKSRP
B2: Tip elongation aberrant protein Tea4 (Schizosaccharomyces pombe (strain ATCC 38366 / 972)), O60132 (parent)
chain: B1 chain

Columns and labels:
pom1_schpo pom1, Q09690 [1] = variants of: B1; details: with pom1_schpo pom1, Q09690
pom1_schpo pom1, Q09690 [2] = variants of: B1; details: with pom1_schpo pom1, Q09690; remark: listed apart in the source
pp11_schpo dis2, P13681 [3] = variants of: B2; details: with pp11_schpo dis2, P13681
pp11_schpo dis2, P13681 [4] = variants of: B2; details: with pp11_schpo dis2, P13681; remark: listed apart in the source

Chain of pp11_schpo dis2, P13681 (P13681 whole entry): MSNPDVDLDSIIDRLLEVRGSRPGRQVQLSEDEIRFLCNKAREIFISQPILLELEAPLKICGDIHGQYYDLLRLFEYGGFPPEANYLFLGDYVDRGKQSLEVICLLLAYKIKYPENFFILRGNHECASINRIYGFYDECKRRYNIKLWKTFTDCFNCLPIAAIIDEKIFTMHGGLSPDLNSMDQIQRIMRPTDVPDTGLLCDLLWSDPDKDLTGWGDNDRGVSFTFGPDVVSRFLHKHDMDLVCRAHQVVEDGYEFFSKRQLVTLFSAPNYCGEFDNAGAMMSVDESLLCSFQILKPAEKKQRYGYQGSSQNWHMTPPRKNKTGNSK

effect of a mutation on the interaction (pom1_schpo pom1, Q09690 [1]) | effect of a mutation on the interaction (pom1_schpo pom1, Q09690 [2]) | effect of a mutation on the interaction (pp11_schpo dis2, P13681 [3]) | effect of a mutation on the interaction (pp11_schpo dis2, P13681 [4]) | Variant
decreasing interaction | disrupting interaction |  |  | W167A;W168A
 |  | disrupting interaction |  | V235A;F237A
 |  | disrupting interaction | decreasing interaction | W167A;W168A
